This note sets out measurements from patent US11873336 (TENEOBIO, dated 2024).

Residue numbers refer to the chain shown, from its start.

Assay [1] addresses T1, human CD22 on CD22-positive Burkitt's lymphoma cells (Daudi, Raji, Ramos) (human, UniProt P20273 20-847).
T1 construct: whole, on cells; also called CD22+ cells; CD22 positive cells
T1 sequence (looked up): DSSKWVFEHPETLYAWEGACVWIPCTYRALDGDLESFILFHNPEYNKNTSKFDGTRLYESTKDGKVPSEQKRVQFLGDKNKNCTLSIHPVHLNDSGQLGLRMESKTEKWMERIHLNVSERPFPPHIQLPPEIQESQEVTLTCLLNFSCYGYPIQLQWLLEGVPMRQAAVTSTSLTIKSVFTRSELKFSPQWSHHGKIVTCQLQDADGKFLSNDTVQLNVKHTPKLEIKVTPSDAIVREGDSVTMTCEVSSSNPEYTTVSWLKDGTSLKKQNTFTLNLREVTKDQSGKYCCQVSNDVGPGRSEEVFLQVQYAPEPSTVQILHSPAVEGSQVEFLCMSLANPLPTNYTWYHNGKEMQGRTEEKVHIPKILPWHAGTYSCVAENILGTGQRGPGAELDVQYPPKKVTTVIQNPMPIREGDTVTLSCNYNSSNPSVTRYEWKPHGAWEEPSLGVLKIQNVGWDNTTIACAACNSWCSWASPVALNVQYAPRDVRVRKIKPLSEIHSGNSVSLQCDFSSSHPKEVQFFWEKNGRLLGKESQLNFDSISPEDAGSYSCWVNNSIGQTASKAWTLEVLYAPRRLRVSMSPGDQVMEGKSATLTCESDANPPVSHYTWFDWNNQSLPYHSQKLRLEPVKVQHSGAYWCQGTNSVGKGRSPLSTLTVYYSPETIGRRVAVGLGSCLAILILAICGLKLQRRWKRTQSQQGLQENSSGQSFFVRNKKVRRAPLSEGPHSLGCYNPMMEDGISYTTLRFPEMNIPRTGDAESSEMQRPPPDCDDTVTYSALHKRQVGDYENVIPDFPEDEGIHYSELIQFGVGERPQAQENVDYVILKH
Kind of assay: cell binding, Daudi cells. The procedure: Binding to CD22 positive cells was assessed by flow cytometry (Guava easyCyte 8HT, EMD Millipore) using the Daudi cell line (ATCC). Briefly, 100,000 target cells were stained with a dilution series of purified UniAbs™ for 30 minutes at 4° C. Following incubation, the cells were washed twice with flow cytometry buffer (1×PBS, 1% BSA, 0.1% NaN_3) and stained with goat F(ab')2 anti-human IgG conjugated to R-phycoerythrin (PE) (Southern Biotech, cat. #2042-09) to detect cell-bound antibodies. After a 20-minute incubation at 4° C., the cells were washed twice with flow cytometry buffer and then mean fluorescence intensity (MFI) was measured by flow cytometry. EC50 values were calculated using GraphPad Prism 7. Binding to *cynomolgus* CD22 positive cells was determined using the same protocol with the following modifications: the target cells were from CHO cells stably transfected to express the extracellular domain of *cynomolgus* CD22 and each antibody was tested at a single concentration (~1.7 µg/mL) so EC50 values were not calculated.

Assay [2] has as its target T2, human CD22 protein (recombinant CD22 extracellular domain) (human, UniProt P20273 20-687).
T2 construct: extracellular domain; also called SIGLEC-2
T2 sequence (looked up): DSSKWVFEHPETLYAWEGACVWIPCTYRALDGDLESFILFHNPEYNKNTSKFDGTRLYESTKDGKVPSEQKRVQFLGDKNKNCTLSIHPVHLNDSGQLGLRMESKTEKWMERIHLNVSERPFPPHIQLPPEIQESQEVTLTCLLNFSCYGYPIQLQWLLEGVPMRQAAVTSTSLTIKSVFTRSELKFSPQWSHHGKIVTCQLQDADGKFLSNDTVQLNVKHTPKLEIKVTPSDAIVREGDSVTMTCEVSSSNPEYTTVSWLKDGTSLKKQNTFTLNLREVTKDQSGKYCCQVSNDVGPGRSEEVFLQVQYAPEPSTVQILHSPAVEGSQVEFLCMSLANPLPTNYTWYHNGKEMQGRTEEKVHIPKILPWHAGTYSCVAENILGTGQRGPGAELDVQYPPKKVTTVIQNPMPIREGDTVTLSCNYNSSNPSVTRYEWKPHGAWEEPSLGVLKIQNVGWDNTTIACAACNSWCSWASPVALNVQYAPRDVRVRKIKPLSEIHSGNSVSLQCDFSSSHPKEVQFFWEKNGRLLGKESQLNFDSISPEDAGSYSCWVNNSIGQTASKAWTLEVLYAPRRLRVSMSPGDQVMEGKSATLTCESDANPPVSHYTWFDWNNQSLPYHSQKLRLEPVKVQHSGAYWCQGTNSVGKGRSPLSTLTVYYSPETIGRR
Nature of the assay: ELISA on recombinant CD22 extracellular domain and/or cell binding.

B1: anti-CD22 heavy chain-only antibody with the VH of SEQ ID NO: 63 (antibody, V domains shown)
VH: QLQLQESGPGLVKPSETLSLTCTVSGGSISSSSYYWGWIRQPPGKGLEWIGSIYYSGSTYYNPSLKSRVTISVDTSKNQFSLKLSSVTAADTAVYYCTREDSSSWRSRGQGTLVTVSS
notes: Heavy chain-only antibody (UniAb), human IgG
As to B1, the binding result in assay [1] and in assay [2] was “binds” throughout.

B2: anti-CD22 heavy chain-only antibody with the VH of SEQ ID NO: 79 (antibody, V domains shown)
VH: B1 VH with S67N, K77R, K83N, E100D, S104N
notes: as for B1
On to B2, for which the binding result in assay [1] and in assay [2] was “binds” in each case.

B3: anti-CD22 heavy chain-only antibody with the VH of SEQ ID NO: 78 (antibody, V domains shown)
VH: B1 VH with G8D, Y34H, S52H, S58A, S67N, K77R, K83N, S104N
notes: as for B1
For the molecule B3, the binding result in assay [1] and in assay [2] was “binds” in each case.

B4: anti-CD22 heavy chain-only antibody with the VH of SEQ ID NO: 74 (antibody, V domains shown)
VH: QLQLQESGPGLVKPSETLSLTCTVSGDSISSGDYYWGWIRQSPEKGLEWIGHIYYSGVTYYNPSLKNRVTISVDTSKNQFSLKLSSVTAADTAVYYCKRDDSSNWRSRGQGTLVTVSS
notes: as for B1
For the molecule B4, the binding result in assay [1] and in assay [2] was “binds” each time.

B5: anti-CD22 heavy chain-only antibody with the VH of SEQ ID NO: 75 (antibody, V domains shown)
VH: B1 VH with S52H, S58A, S67N
notes: as for B1
Turning to B5, the binding result in assay [1] and in assay [2] was “binds” throughout.

B6: anti-CD22 heavy chain-only antibody with the VH of SEQ ID NO: 76 (antibody, V domains shown)
VH: B1 VH with I53V, S56T, S58A, S67N, E100D, S104N
notes: as for B1
Consider B6, for which the binding result in assay [1] and in assay [2] was “binds” in each case.

B7: anti-CD22 heavy chain-only antibody with the VH of SEQ ID NO: 73 (antibody, V domains shown)
VH: B1 VH with S58V, S67N
notes: as for B1
On to B7, for which the binding result in assay [1] and in assay [2] was “binds” throughout.

B8: anti-CD22 heavy chain-only antibody with the VH of SEQ ID NO: 68 (antibody, V domains shown)
VH: B1 VH with S58V, S67N, S104N
notes: as for B1
For the molecule B8, the binding result in assay [1] and in assay [2] was “binds” throughout.

B9: anti-CD22 heavy chain-only antibody with the VH of SEQ ID NO: 80 (antibody, V domains shown)
VH: B1 VH with S52H, S58A, S67N, K77R, K83N, S104N
notes: as for B1
Take B9: the binding result in assay [1] and in assay [2] was “binds” throughout.

B10: anti-CD22 heavy chain-only antibody with the VH of SEQ ID NO: 64 (antibody, V domains shown)
VH: B1 VH with S52H, S58A, S67N, E100D, S104N
notes: as for B1
Take B10: the binding result in assay [1] and in assay [2] was “binds” throughout.

B11: anti-CD22 heavy chain-only antibody with the VH of SEQ ID NO: 70 (antibody, V domains shown)
VH: B1 VH with K13R
notes: as for B1
For the molecule B11, the binding result in assay [1] and in assay [2] was “binds” each time.

B12: anti-CD22 heavy chain-only antibody with the VH of SEQ ID NO: 66 (antibody, V domains shown)
VH: B1 VH with S67N, S104N
notes: as for B1
For the molecule B12, the binding result in assay [1] and in assay [2] was “binds” in each case.

B13: anti-CD22 heavy chain-only antibody with the VH of SEQ ID NO: 67 (antibody, V domains shown)
VH: B1 VH with S30T, E100D, S104N
notes: as for B1
With B13, the binding result in assay [1] and in assay [2] was “binds” in each case.

B14: anti-CD22 heavy chain-only antibody with the VH of SEQ ID NO: 69 (antibody, V domains shown)
VH: B1 VH with S104N
notes: as for B1
Turning to B14, the binding result in assay [1] and in assay [2] was “binds” throughout.

B15: anti-CD22 heavy chain-only antibody with the VH of SEQ ID NO: 72 (antibody, V domains shown)
VH: B1 VH with S58A, S67N, K77R, K83N, V94M, S104N
notes: as for B1
With B15, the binding result in assay [1] and in assay [2] was “binds” each time.

B16: anti-CD22 heavy chain-only antibody with the VH of SEQ ID NO: 71 (antibody, V domains shown)
VH: B1 VH with S58A, S67N, K77R, K83N, S104N
notes: as for B1
Turning to B16, the binding result in assay [1] and in assay [2] was “binds” in each case.

B17: anti-CD22 heavy chain-only antibody with the VH of SEQ ID NO: 65 (antibody, V domains shown)
VH: B1 VH with S58A, S67N, K77R, K83N
notes: as for B1
In the case of B17, the binding result in assay [1] and in assay [2] was “binds” each time.
